# Measurements from PMC7314969, “Natural Transformation in Deinococcus radiodurans: A Genetic Analysis Reveals the Major Roles of DprA, DdrB, RecA, RecF, and RecO Proteins”.
# T1: DprA (DrDprA) (Deinococcus radiodurans R1 ATCC 13939, UniProt Q9RY31 1-370)
# T1 sequence: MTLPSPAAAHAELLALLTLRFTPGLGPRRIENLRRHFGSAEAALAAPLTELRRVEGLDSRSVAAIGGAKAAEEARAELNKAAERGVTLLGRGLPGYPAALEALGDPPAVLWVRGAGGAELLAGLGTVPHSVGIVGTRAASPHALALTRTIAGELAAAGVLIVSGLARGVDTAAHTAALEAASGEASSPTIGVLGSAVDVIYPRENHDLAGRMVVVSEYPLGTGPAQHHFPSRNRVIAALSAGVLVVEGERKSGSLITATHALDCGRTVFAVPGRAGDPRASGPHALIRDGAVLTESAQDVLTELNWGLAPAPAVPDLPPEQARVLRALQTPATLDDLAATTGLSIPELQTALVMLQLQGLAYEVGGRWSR
# B1: dT100 (ssDNA)
# DNA: TTTTTTTTTTTTTTTTTTTTTTTTTTTTTTTTTTTTTTTTTTTTTTTTTTTTTTTTTTTTTTTTTTTTTTTTTTTTTTTTTTTTTTTTTTTTTTTTTTTT
# Biological target: T1, DprA (DrDprA)
# Experiment: fluorescence anisotropy; 2.5 mM Mg2+; apparent Kd; 25 mM NaCl, 20 mM Tris pH 7.5, 2.5 mM MgCl2, 2.5% (v/v) glycerol, 25 nM 5'-fluorescein ssDNA, 20 C; 35-mers of varying GC content (Fig. 5B) also tested, affinity rises with GC, but number, sequences and values not in the material
# Settings: protein: recombinant; tags: C-terminal His6; chain copies: 2; label: 5'-fluorescein
row,Binder,Kd
1,TTTTTTTTTTTTTTTTTTTTTTTTTTTTTTTTTTTTTTTTTTTTTTTTTT (ssDNA) [dT50],1200 nM
2,TTTTTTTTTTTTTTTTTTTT (ssDNA) [dT20],7500 nM
3,B1,1000 nM
